Test results: the supplement of paper PMC9170038

System: MS2 coat protein
Experiment: apparent KD of MS2 coat protein; designed switch direction (-1 OFF switch, 1 ON switch): 1; higher = weaker reporter binding
Summary of the method: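 Designed RNA switches with common flanks were transcribed on Illumina chips by stalled E. coli RNA polymerase and titrated with SNAP-549-labelled MS2 coat protein, from 0.7 or 1.5 nM doubling to 3 µM, in Tris-HCl pH 7.5 buffer with KCl, MgCl2, BSA, DTT, tRNA and Tween-20. Steps lasted 0.8–1.5 h (lowest) to 10–20 min (highest). Titrations ran without input, with 200 uM small-molecule ligand, or with an oligonucleotide input. Normalised cluster fluorescence was curve-fitted, and apparent KD is the per-design median over clusters.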

[1] = Eterna round: R95, input ligand: FMN 200 uM
[2] = Eterna round: R95, input ligand: microRNA oligo, concentration not stated
[3] = Eterna round: R95, input ligand: none
[4] = input ligand: microRNA oligo, concentration not stated

Sequence | apparent KD of MS2 coat protein [1] | apparent KD of MS2 coat protein [2] | apparent KD of MS2 coat protein [3] | apparent KD of MS2 coat protein (input ligand: FMN 200 uM) | apparent KD of MS2 coat protein [4] | apparent KD of MS2 coat protein (input ligand: none)
AUUAUACAUGAGGAUCACCCAUGUCAACAAAGUCGAGGAUAUGGGCAAAUAAAAUAAGAACCAGAAGGCGAAUAAU [salish99_ss1_r3_069] (puzzle: Same State 1) | 51.3 nM | 155 nM | 259 nM |  |  | 
AUUAUACAUGAGGAUCACCCAUGUCAAUGUAGUCGAGGAUAUGGGCAGCUGUGAGGCGUACUAGAAGGCGAAGAGA [Mat - Same State 1 - Mod of JL - D9] (puzzle: Same State 1) | 59.9 nM | 192 nM | 222 nM |  |  | 
AUUAUUAAUGCAGGAUAUGAUUAACAUGAGGAUCACCCAUGUGGUGUUGUGAGUAAGGAGAGUGAUCAGAAGGGCAGUUUUUUU [JMF's solution 8] (Eterna round: R96, puzzle: Same State NG 2) |  |  |  | 614 nM | 227 nM | 262 nM
AUUAUUAAUGCAGGAUAUGAUUAACAUGAGGAUCACCCAUGUGGUGUUGUGAGUAAGGAGAGUGAUCAGAAGGGCAUUUCUUUU [JMF's solution 11] (Eterna round: R96, puzzle: Same State NG 2) |  |  |  | 468 nM | 241 nM | 373 nM
AUUAUUAAUGCAGGAUAUGAUUAACAUGAGGAUCACCCAUGUGGUGUUGUGAGUAAGGAGAGUGAUCAGAAGGGCAUUUUUUUC [JMF's solution 20] (Eterna round: R96, puzzle: Same State NG 2) |  |  |  | 672 nM | 369 nM | 399 nM
AUUAUUAGUGCAGGAUAUGAUUAACAUGAGGAUCACCCAUGUGGUGUUGUGAGUAAGGAGAGUGAUCAGAAGGGCAUUUUUUUU [JMF's solution 21] (Eterna round: R96, puzzle: Same State NG 2) |  |  |  | 659 nM | 333 nM | 406 nM
AUUAUUUCUGCAGGAUAUGAUUAACAUGAGGAUCACCCAUGUGGUGUUGUGAGUAAGGAGAGUGAUCAGAAGGGCAUUUUUUUU [JMF's solution 62] (Eterna round: R96, puzzle: Same State NG 2) |  |  |  | 630 nM | 211 nM | 313 nM
AUUGCUAGCACAGGAUAUCAUGCGAAAAUUGCGUGAGAAGGGUGUACUCUGUCAUUGCCGGAGGACAUGAGGAUCACCCAUGUC [SameState NG1 #82] (Eterna round: R96, puzzle: Same State NG 1) |  |  |  | 218 nM | 33.6 nM | 37.5 nM
AUUUAACAAGCUUUUUGCUCGUCUUAUAAACAUGAGGAUCACCCAUGUAAUAGCGUGAGAGUAAAUUAAUAAAUAAU [JMF 83] (puzzle: Sensor for hsa-mir-208a) | 14.5 nM | 44.7 nM | 13.5 nM |  |  | 
AUUUAACAAGCUUUUUGCUCGUCUUAUAAACAUGAGGAUCACCCAUGUAAUAGCGUGAGAGUAAUUAUUUAAAUAAU [JMF 94] (puzzle: Sensor for hsa-mir-208a) | 16.1 nM | 37.5 nM | 14.7 nM |  |  | 
AUUUCUAGCACAGGAUAUCAUGCGAAAAUUGCGUGAGAAGGGUGGACGCUGUCAUUCACGGAAGACAUGAGGAUCACCCAUGUC [SameState NG1 #76] (Eterna round: R96, puzzle: Same State NG 1) |  |  |  | 48 nM | 53.4 nM | 102 nM
AUUUUUAAUGCAGGAUAUGAUUAACAUGAGGAUCACCCAUGUGGUGUUGUGAGUAAGGAGAGUGAUCAGAAGGGCAGUUUUUUU [JMF's solution 79] (Eterna round: R96, puzzle: Same State NG 2) |  |  |  | 543 nM | 315 nM | 499 nM
AUUUUUAAUGCAGGAUAUGAUUAACAUGAGGAUCACCCAUGUGGUGUUGUGAGUAAGGAGAGUGAUCAGAAGGGCAUAUUUUUU [JMF's solution 80] (Eterna round: R96, puzzle: Same State NG 2) |  |  |  | 1170 nM | 443 nM | 863 nM
AUUUUUAAUGCAGGAUAUGAUUAACAUGAGGAUCACCCAUGUGGUGUUGUGAGUAAGGAGAGUGAUCAGAAGGGCAUUUUGUUU [JMF's solution 83] (Eterna round: R96, puzzle: Same State NG 2) |  |  |  | 747 nM | 400 nM | 687 nM
AUUUUUCAUGCAGGAUAUGAUUAACAUGAGGAUCACCCAUGUGGUGUUGUGAGUAAGGAGAGUGAUCAGAAGGGCAUUUUUUUU [JMF's solution 94] (Eterna round: R96, puzzle: Same State NG 2) |  |  |  | 837 nM | 342 nM | 503 nM
CAAGCUUGGGUCGUCCCGCUCGUCUACAAACAUGAGGAUCACCCAUGUAAAAUCUAAAAUUCAAAUCUAUCUCUAAA [Getienre] (puzzle: Sensor for hsa-mir-208a) | 515 nM | 20.9 nM | 563 nM |  |  | 

Sequence | apparent KD of MS2 coat protein [1] | apparent KD of MS2 coat protein [2] | apparent KD of MS2 coat protein [3] | apparent KD of MS2 coat protein (input ligand: FMN 200 uM) | apparent KD of MS2 coat protein [4] | apparent KD of MS2 coat protein (input ligand: none)
CAAGCUUGGGUCGUCCCGCUCGUCUACAAACAUGAGGAUCACCCAUGUAUGCUCUUCGCAUCAAUUCUAUCUCUUGG [Quxeteor] (puzzle: Sensor for hsa-mir-208a) | 51.5 nM | 51.3 nM | 54.1 nM |  |  | 
CAGCACUGUCGAGAGGAUAUGCGGUGAUGGACAUGAGGAUCACCCAUGUUAGCGACAGCAUCACGGCAGAAGGCUCUACUGCUGC [Soteed Omei mod 32] (puzzle: Same State 2) |  | 12.3 nM |  |  |  | 
CAGUGCUGUCGAGAGGAUAUGCGGUGAUGGACAUGAGGAUCACCCAUGUUAGCGACAGCAUCACGGCAGAAGGCUCUACCCACUG [Soteed Omei mod 45] (puzzle: Same State 2) |  | 16.7 nM |  |  |  | 
CCAAUGUACAAUUUAGAUCUACAUGAGGAUCACCCAUGUACAGAGGAUAUCAGCUCGUGUAGAGCUGAGAAGGCUGAAUUAAUU [SSNG3/3-A4] (Eterna round: R96, puzzle: Same State NG 3) |  |  |  | 117 nM | 117 nM | 179 nM
CCAGCUACUCACAUGAGGAUCACCCAUGUCUAGGAUAUAGUAGAGGAUAUUGGCGGAUGGAAGACCGAGAAGGCUACCUCCUGA [Eternabot solution 49] (Eterna round: R96, puzzle: Same State NG 3) |  |  |  | 17.9 nM | 14.4 nM | 18.3 nM
CCAGGACAUGAGGAUCACCCAUGUGCUUAAUGUGGAGAAUCUCAGGAUAUCAUGAGGAUUACCCAUGAGAAGGGAGAUCCGAGG (Eterna round: R96, puzzle: Same State NG 3) |  |  |  | 437 nM | 300 nM | 483 nM
CCAUAACGGUGAGGAUAUCGUUGCGAUAAGUGACGAGAAGGCAUUCAUGUGAAAUAAACAUACAUGAGGAUCACCCAUGUUGUA [Omei SS(NG)1 Bv1] (Eterna round: R96, puzzle: Same State NG 1) |  |  |  | 23.7 nM | 57.2 nM | 57.7 nM
CCGAUGAUAGGACAGGAUAUGACUGUCGUCACAUGAGGAUCACCCAUGUCCCGGCAAUGCCACCGUUAGAAGGGUCCCAUCUCGG [Uslainarin] (Eterna round: R96, puzzle: Same State 2) |  |  |  | 18.2 nM | 18.6 nM | 23.8 nM
CCGAUGAUAGGACAGGAUAUGACUGUCGUCACAUGAGGAUCACCCAUGUCCCGGCAAUGCCACCGUUAGAAGGGUCCCAUCUCGG [Uslainarin] (puzzle: Same State 2) |  | 15.6 nM |  |  |  | 
CCGCCGGGAACCCGGCGAAAACAUGAGGAUCACCCAUGUACACAGGAUAUCGUGACAUUAACAAACGAGAAGGGUGGCCGAGAC [Lelateen] (Eterna round: R96, puzzle: Same State NG 3) |  |  |  | 453 nM | 189 nM | 182 nM
CCGGAUAAUGGAGGAUAUGGAGCCUUAUUGGCUCCAGAAGGCUAACAUGAGGAUCACCCAUGUAGUCCGGCGGUCAAUAGACCG [Eli NG1ss - 67] (Eterna round: R96, puzzle: Same State NG 1) |  |  |  | 10.9 nM | 11.5 nM | 21.6 nM
CCGGCAAGUAUAGGAUAUCCCGCAACAGAAACGGGAGAAGGGUGCCAAACAUGAGGAUCACCCAUGUACACCGGAAAUAAAUAA [Lazaorra] (Eterna round: R96, puzzle: Same State NG 1) |  |  |  | 54.9 nM | 56.4 nM | 46.9 nM
CCGUAAUAUGGAGGAUAUGGAGCCUUAUUGGCUCCAGAAGGUCAUAACACAUGAGGAUCACCCAUGUCGGCGGUCAAUAGACCG [Eli NG1ss - 76] (Eterna round: R96, puzzle: Same State NG 1) |  |  |  | 19.4 nM | 74.9 nM | 68.3 nM
CCGUAGAUGGAAGGAUAUGGAGCCUUAUUGGCUCCAGAAGGUUCAAUAACAUGAGGAUCACCCAUGUCGGCGGUCAAUAGACCG [Eli NG1ss - 80] (Eterna round: R96, puzzle: Same State NG 1) |  |  |  | 20.5 nM | 27.7 nM | 44.9 nM
CCUGACAUGAGGAUCACCCAUGUAGGGAAACAAUGACAUAUGGAGGAUAUACACCCGAAAGGCGCGUAGAAGGUCACAUGUCCA [Eternabot solution 5] (Eterna round: R96, puzzle: Same State NG 3) |  |  |  | 10.7 nM | 10.8 nM | 13 nM
